Test results: US20250207107A1, “LUCIFERASE MUTANT AND USE THEREOF” (DGI TECH (QING DAO) CO., LIMITED, priority 2022, published 2025)

What was measured:
Format in all cases: biochemical
[1] = Substrate specificity assay of purified luciferase, ZS2/F-CTZ luminescence ratio; details: for ZS2 luminescence intensity to F-CTZ luminescence intensity: purified prokaryotically expressed luciferase 1 μg/ml, substrates 100 μM, microplate reader
Procedure: (§1) Protein concentration was accurately determined using the BCA quantification kit (Thermo Scientific™ Pierce™ BCA Protein Assay Kit), and luciferase was diluted to 1 μg/ml with diluent (50 mM Tris-HCl pH 8.0, 100 mM NaCl, 0.1% (v/v) Tween-20) and 10 μL was added to black 96-well plates, which was then added with 90 μL of the respective substrates, coelenterazine (purchased from Baiaolaibo), fluorinated coelenterazine, and coelenterazine derivatives ZS2 and ZS26 that were diluted to 100 μM with the same solution, and the luminescence intensity was read from the luminescence module with a microplate reader. The substrate specificity of the mutants was compared with the activity ratio of ZS2/F-CTZ and ZS26/F-CTZ. Table 10 below lists results of the mutation sites and substrate specificity of ZS26/F-CTZ and ZS2/F-CTZ of the dominant mutant of Pleuromamma xiphia luciferase.
(§2) pEE12.4 Pxluc WT and mutant pEE12.4 Pxluc P26-95, as well as the coupled products SA-Pxluc WT and SA-Pxluc P26-95 were subjected to the activity assay according to the method described in Example 5.

[2] = Substrate specificity assay of purified luciferase, ZS26/F-CTZ luminescence ratio; details: for ZS26 luminescence intensity to F-CTZ luminescence intensity: purified prokaryotically expressed luciferase 1 μg/ml, substrates 100 μM, microplate reader
Procedure: as §1, §2

[3] = Protein activity assay for Pleuromamma xiphia luciferase expressed in prokaryotic cells; details: protein expressed in OrigamiB (DE3) or BL21 (DE3), Gluc as control, FIG. 6
Procedure: The concentration of protein was accurately determined using a BCA quantification kit (Thermo Scientific™ Pierce™ BCA Protein Assay Kit), and the above purified luciferase was diluted with diluent (50 mM Tris-HCl pH 8.0, 100 mM NaCl, 0.1% (v/v) Tween-20). The protein expressed by the pET28a-Pxluc WT plasmid was diluted to 12 μg/ml, and the proteins expressed by the pCold WT Pxluc plasmid and pCold WT-NS Pxluc plasmid were diluted to […]. 10 μL of each protein was added to a black 96-well plate, which was then added with 90 µL of the respective substrates, coelenterazine (purchased from Baiaolaibo), fluorinated coelenterazine, and coelenterazine derivatives ZS2, ZS26 (the structural formula of each compound is shown in FIG. 5) that were diluted to 100 µM with the same solution, and the luminescence intensity was read from the luminescence module with a microplate reader. Gluc expressed in OrigamiB (DE3) competent cells was known to have good luminescence activity, and thus it was used as a control group. […] Therefore, the luminescence activity of Pleuromamma xiphia luciferase without a signal peptide to coelenterazine is similar to that of Gluc to coelenterazine. […] Subsequent experiments were performed with Pleuromamma xiphia luciferase without a signal peptide.

[4] = Activity assay of Pxluc expressed in eukaryotic cells; details: expressed in eukaryotic cells (Expi-CHO); FIG. 12
Procedure: as §1, §2

Molecule	ZS2 luminescence intensity to F-CTZ luminescence intensity [1]	substrate specificity for ZS2/F-CTZ ([1]; text summary of Table 10, FIG. 8)	ZS26 luminescence intensity to F-CTZ luminescence intensity [2]	substrate specificity for ZS26/F-CTZ ([2]; text summary of Table 10, FIG. 7)	luminescence value / luminescence activity to coelenterazine ([3]; listed as Pleuromamma xiphia luciferase without a signal peptide)	luminescence value / luminescence activity to coelenterazine ([3]; listed as pCold WT NS Pxluc)	activity of catalyzing the substrates ZS2, ZS26 [4]
pCold WT-NS Pxluc: wild type Pleuromamma xiphia luciferase without a signal peptide, SEQ ID NO: 4, prokaryotic expression (protein, WT-NS Pxluc) QPTENKQESHIVDSDLDGDRGRKLPGKKLPIEVLKIMEANARRAGCTRGCLICLSKIKCTAKMKRYIPGRCHTYEGDKSIGQGGIGGPIVDIPEIIGFKNMEPMDQFIAQVDLCADCTTGCLKGLANVRCNDLLKKWLPDRCAGFADKIQNEVDSIKGMAGDR	3.56	about 3.56 fold	1.77	about 1.77 fold	higher activity	highest luminescence value	
P25-1: Pxluc mutant without signal peptide, G98L, Q99R (SEQ ID NO: 2 numbering) (protein, signal peptide removed; (WT Pxluc)) MYIKVWFGLACLSLVLAQPTENKQESHIVDSDLDGDRGRKLPGKKLPIEVLKIMEANARRAGCTRGCLICLSKIKCTAKMKRYIPGRCHTYEGDKSILRGGIGGPIVDIPEIIGFKNMEPMDQFIAQVDLCADCTTGCLKGLANVRCNDLLKKWLPDRCAGFADKIQNEVDSIKGMAGDR	21.808		23.647				
Pxluc WT: wild-type luciferase for eukaryotic expression, with signal peptide, 6×His tag and Avitag (SEQ ID NO: 28) (protein, misc_feature 1..585 pEE12.4) MYIKVWFGLACLSLVLAHHHHHHGSQPTENKQESHIVDSDLDGDRGRKLPGKKLPIEVLKIMEANARRAGCTRGCLICLSKIKCTAKMKRYIPGRCHTYEGDKSIGQGGIGGPIVDIPEIIGFKNMEPMDQFIAQVDLCADCTTGCLKGLANVRCNDLLKKWLPDRCAGFADKIQNEVDSIKGMAGDRGSGLNDI							had the activity of catalyzing the substrates
